Experimental data taken from IntAct's records for PubMed 19015526.

B1: Ribonucleoside-diphosphate reductase subunit M2 B (Homo sapiens), Q7LG56-1 (parent)
chain: MGDPERPEAAGLDQDERSSSDTNESEIKSNEEPLLRKSSRRFVIFPIQYPDIWKMYKQAQASFWTAEEVDLSKDLPHWNKLKADEKYFISHILAFFAASDGIVNENLVERFSQEVQVPEARCFYGFQILIENVHSEMYSLLIDTYIRDPKKREFLFNAIETMPYVKKKADWALRWIADRKSTFGERVVAFAAVEGVFFSGSFAAIFWLKKRGLMPGLTFSNELISRDEGLHCDFACLMFQYLVNKPSEERVREIIVDAVKIEQEFLTEALPVGLIGMNCILMKQYIEFVADRLLVELGFSKVFQAENPFDFMENISLEGKTNFFEKRVSEYQRFAVMAETTDNVFTLDADF

Variants of: B1
Settings: with atm_human ATM

| effect of a mutation on the interaction | Variant |
| --- | --- |
| decreasing interaction | MGDPERPEAAGLDQDERSSSDTNESEIKSNEEPLLRKSSRRFVIFPIQYPDIWKMYKQAQASFWTAEEVDLAKDLPHWNKLKADEKYFISHILAFFAASDGIVNENLVERFSQEVQVPEARCFYGFQILIENVHSEMYSLLIDTYIRDPKKREFLFNAIETMPYVKKKADWALRWIADRKSTFGERVVAFAAVEGVFFSGSFAAIFWLKKRGLMPGLTFSNELISRDEGLHCDFACLMFQYLVNKPSEERVREIIVDAVKIEQEFLTEALPVGLIGMNCILMKQYIEFVADRLLVELGFSKVFQAENPFDFMENISLEGKTNFFEKRVSEYQRFAVMAETTDNVFTLDADF [S72A] |
